Measured values reported in the supplement of paper PMC12042874.
± gives the uncertainty stated by the source.

Test: amyloid nucleation score (Sup35N fusion, yeast selection) (log enrichment); library NNK1; higher = more nucleation; inactive = no reads after selection
In short: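 Output and input plasmid inserts were sequenced by Illumina after psi-negative yeast carrying Sup35N fused to peptides of 20 random codons had been induced 24 hours with 100 μM copper sulfate and grown 7 days at 30°C on medium lacking adenine and uracil. The nucleation score is the DiMSum log enrichment of output over input reads, centred on the mode score of non-aggregating sequences. Sequences with under 100 input reads were excluded.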

## KTGCVGTS
  amyloid nucleation score: inactive

## YFDKKLGLS
  amyloid nucleation score: inactive

## MYLVVTVRFNWLPRDQFTVL
  amyloid nucleation score: 0.848 ± 0.37

## AVPRAFIQKCSSITLSVYPM
  amyloid nucleation score: -0.504 ± 0.99

## PTAEV
  amyloid nucleation score: 0.545 ± 0.76

## FYYVRLDARMVDSSSFV
  amyloid nucleation score: -0.542 ± 0.28

## KTFVPWISCATSIEVFYVAS
  amyloid nucleation score: 1 ± 0.54

## CLFKGLCSGWLREYALPYFC
  amyloid nucleation score: -1.05 ± 0.97

## VRNKMGSRSYSTS
  amyloid nucleation score: -1.65 ± 2.7

## CDFRIFRLSVPGTYYVCDWL
  amyloid nucleation score: -0.018 ± 0.6

## RYFCAIWLGCGERRSRVSKW
  amyloid nucleation score: 1.38 ± 0.34

## CYCFGQCWYDYVCIELLIGR
  amyloid nucleation score: 5.06 ± 0.052

## LKELYG
  amyloid nucleation score: 0.303 ± 0.65

## AFRIFPHL
  amyloid nucleation score: inactive

## DCGRWNRKRPNSVLGVYL
  amyloid nucleation score: 1.48 ± 0.88

## DLFYINIVMKSFVHWVNHLH
  amyloid nucleation score: 0.416 ± 0.28

## YRALLYFNGIMW
  amyloid nucleation score: inactive

## KFRESFLT
  amyloid nucleation score: -1.32 ± 0.94

## MPIEYG
  amyloid nucleation score: -0.27 ± 0.71

## GKYFLSICHDT
  amyloid nucleation score: 0.033 ± 0.36

## SGGNLFRVMRWSMHFVSVRL
  amyloid nucleation score: -0.355 ± 0.33

## RCVSAFLLLFSMHRHG
  amyloid nucleation score: 1.28 ± 0.36

## YIPICIRSYIKNAS
  amyloid nucleation score: 0.413 ± 1.2

## LCGTSGCSIRNLV
  amyloid nucleation score: 0.026 ± 0.46

## SVWDGFSLRYPSLVYLRCGS
  amyloid nucleation score: -0.634 ± 0.71

## INWRN
  amyloid nucleation score: -0.471 ± 0.34

## GSLSVAATSFTVMYRVKLVF
  amyloid nucleation score: 0.085 ± 0.58

## HTNVWGGAHYTSIKAN
  amyloid nucleation score: 0.581 ± 0.31

## MVGRNWKTGSIVTLVMFRLE
  amyloid nucleation score: 0.041 ± 1.1

## SFNVAMCRCDVYL
  amyloid nucleation score: 7.027 ± 0.047

## PYIRVRLFMVVY
  amyloid nucleation score: 0.659 ± 0.56

## RVNTCMSRGRA
  amyloid nucleation score: -0.367 ± 0.61

## NPLHGARFLIGNVFIIRNFK
  amyloid nucleation score: 5.52 ± 0.073

## ISLSSGLALKPS
  amyloid nucleation score: 1.41 ± 0.48

## LKSRGWYCFSNVTMYDLRME
  amyloid nucleation score: 3.42 ± 0.067

## SKVVGGESKVQ
  amyloid nucleation score: 1.05 ± 0.6

## IFAVHMLYSECTGSFRYHWS
  amyloid nucleation score: 0.055 ± 0.79

## YSHDSSSTIFRNETPLSTPM
  amyloid nucleation score: inactive

## TMLMNEWGMLLNKWEWA
  amyloid nucleation score: -0.398 ± 1.1

## NIHVSKVGGLGTNLCYARNA
  amyloid nucleation score: 1.77 ± 0.51

## SFHWQKGSSSYTVSPHSAKL
  amyloid nucleation score: 0.239 ± 0.26

## IMAGP
  amyloid nucleation score: -0.624 ± 0.58

## TFSFFDRVLSLFLN
  amyloid nucleation score: -0.179 ± 0.44

## LAGMTSKHFTLRMMSHLDSY
  amyloid nucleation score: 0.043 ± 1

## SMIGCYMTF
  amyloid nucleation score: 0.073 ± 0.36

## CTMSTSMPHRAVRRELSSIE
  amyloid nucleation score: 0.052 ± 0.3

## CMSLFRYENVQYLFTRIHSI
  amyloid nucleation score: 1.43 ± 0.34

## PQLRLLPGVLGNPGNGHSRI
  amyloid nucleation score: 4.59 ± 0.098

## LVMTYVFLDCI
  amyloid nucleation score: -0.634 ± 1.1

## KVLSYWDVSWGMASRFVSCY
  amyloid nucleation score: 0.724 ± 0.49

## GCYSQNICCVTCIKRRSIVS
  amyloid nucleation score: -1.02 ± 0.69

## QPFALNRLYHT
  amyloid nucleation score: -0.591 ± 0.62

## LMRDSCHDQQVLGCFYMSKL
  amyloid nucleation score: -0.215 ± 1.2

## MELTIAKSEMHVFKGGCVQL
  amyloid nucleation score: -0.45 ± 0.57

## AGGVKSCTKRFN
  amyloid nucleation score: -0.232 ± 1.5

## LCELNSKAVYGSKMAHCYSS
  amyloid nucleation score: -0.151 ± 0.33

## RDWLLTLVLTLSQGPTTCAT
  amyloid nucleation score: 0.247 ± 1.4

## YILVNMMGVWVVKVTHKVN
  amyloid nucleation score: inactive

## CLRPLEPDVYVTRILRFCDS
  amyloid nucleation score: -0.304 ± 0.39

## LFMLSIHFGVHILSRLW
  amyloid nucleation score: 1.57 ± 0.16

## LCSWADLDNKDLKSPR
  amyloid nucleation score: 0.102 ± 0.43

## LSVYA
  amyloid nucleation score: 0.612 ± 0.45

## TRSYNWARCTLSGVALGQGQ
  amyloid nucleation score: -0.724 ± 2.4

## ARRGHKK
  amyloid nucleation score: 1.32 ± 0.64

## RSVPCPYYGLL
  amyloid nucleation score: 0.033 ± 0.66

## GQEVHISIVNVLQFEYNRYD
  amyloid nucleation score: 6.074 ± 0.05

## ASSIDYQRTS
  amyloid nucleation score: 0.322 ± 0.71

## VFLKDSTVAGNVMTCDIRVV
  amyloid nucleation score: 0.078 ± 0.6

## FSSRWSI
  amyloid nucleation score: -0.138 ± 0.6

## HVLADHYTMRGTNFVGYFHL
  amyloid nucleation score: 4.88 ± 0.069

## TGVTHC
  amyloid nucleation score: inactive

## TSTPNVWRKR
  amyloid nucleation score: inactive

## QKYPSWINFPYF
  amyloid nucleation score: -0.935 ± 0.97

## NLFTDVIHYMVAFLLVYYII
  amyloid nucleation score: 0.682 ± 0.49

## LLKVQGF
  amyloid nucleation score: 1.13 ± 0.51

## NTMLQKVKCWKRRVDSSRQE
  amyloid nucleation score: 0.093 ± 0.87

## VIMFSFIS
  amyloid nucleation score: 5.04 ± 0.062

## SYWCSHIIIERMLVLVHRIV
  amyloid nucleation score: 1.19 ± 0.59

## ADSLSDELFDYKTYIAVKSF
  amyloid nucleation score: -0.645 ± 0.27

## RIDCYW
  amyloid nucleation score: -0.858 ± 1.1

## GQMGPMKREDGVLFVVTREN
  amyloid nucleation score: -0.255 ± 1.1

## VPTCMRVYIRGNSHNGMLAA
  amyloid nucleation score: 1.1 ± 0.4

## MSSPMRRDAKL
  amyloid nucleation score: 2.67 ± 0.14

## LSPLNVKIDSSFVFYIIRLK
  amyloid nucleation score: -0.178 ± 0.36

## GSWCSRIK
  amyloid nucleation score: 0.958 ± 0.35

## ISRDNNQTGLMGGLERRTES
  amyloid nucleation score: 0.533 ± 0.65
